Measured values: US20250011447A1 (EXCYTE BIOPHARMA, published 2025)
Changes are numbered by the printed parent chain.

T1: human BCMA on the cell membrane surface (H929 and RPMI8226 cells) (human, UniProt Q02223 1-184)
T1 construct: whole, on cells; also called BCMA antigen on the cell membrane surface; BCMA-expressing cell line H929
T1 sequence (looked up): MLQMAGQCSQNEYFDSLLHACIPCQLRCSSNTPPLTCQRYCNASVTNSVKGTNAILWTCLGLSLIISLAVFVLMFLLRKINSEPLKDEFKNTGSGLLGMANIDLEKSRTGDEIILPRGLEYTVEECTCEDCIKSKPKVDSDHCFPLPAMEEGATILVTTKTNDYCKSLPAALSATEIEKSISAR

T2: BCMA-Fc fusion protein (Acrobiosystems, catalog number BC7-H5254) (human, UniProt Q02223 1-54, biotin cross-linked, 3 to 5 biotin molecules per molecule, where the biotinylated antigen is used (ELISA of Table 3); sites not stated)
T2 construct: Bought protein; also called BCMA antigen; BCMA-Fc antigen; not shown: human Fc of the bought fusion protein
T2 sequence (looked up): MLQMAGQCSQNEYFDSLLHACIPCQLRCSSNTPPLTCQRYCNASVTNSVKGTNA

B1: B10 scFv-Fc protein (B10 parental antibody) (Fc fusion)
scFv: QVQLQQSGAEVKKPGSSVKVSCKASGGTFSSYAISWVRQAPGQGLEWMGGIIPIFGTANYAQKFQGRVTITADESTSTAYMELSSLRSEDTAVYYCARGWYFDLWGRGTLVTVSSASTGGSSRSSSSGGGGSGGGGLPVLTQPPSASGTPGQRVTISCSGSSSNIGGYSVNWYQQFPGTAPKLLIYRNNQRPSGVPDRFSGSKSGASASLAISGLQSEDEADYYCAAWDDSLIGYVFGTGTQLTVL
notes: scFv gene fused with the Fc gene of human IgG4 (plasmid pFH-B10); also called clone B10; scFv-Fc protein of B10; not shown: Fc of human IgG4 from vector pFH
B2: B10.5 scFv-Fc (Fc fusion)
scFv: B1 scFv with S31K, Y32S, S35H, I51V, F102L, E220V
notes: also called mutant B10.5; not shown: Fc (scFv-Fc)
B3: B10.4 scFv-Fc (Fc fusion)
scFv: QVQLQQSGAEVKKPGSSVKVSCKASGGTFSKSAIMWVRQAPGQGLEWMGGVIPIFGTANYAQKFQGRVTITADESTSTAYMELSSLRSEDTAVYYCARGWYLDLWGRGTLVTVSSASTGGSSRSSSSGGGGSGGGGLPVLTQPPSASGTPGQRVTISCSGSSNNIGGYSVNWYQQFPGTAPKLLIYRNNQRPSGVPDRFSGSKSGASFSLAISGLQFEDEADYYCARWDDSVIGWVLGTGTQLTVL
notes: also called mutant B10.4; not shown: Fc (scFv-Fc)
B4: B10.9 scFv-Fc (Fc fusion)
scFv: B3 scFv with M35Q, F208A, F217S, R227A, V232E, V236L, L237F
notes: also called mutant B10.9; not shown: Fc (scFv-Fc)
B5: B10.3 scFv-Fc (Fc fusion)
scFv: B3 scFv with M35Q, F208A, F217S, R227A, V236L, L237F
notes: also called mutant B10.3; not shown: Fc (scFv-Fc)
B6: B10 parental antibody Fab (Fab, V domains shown)
VH: QVQLQQSGAEVKKPGSSVKVSCKASGGTFSSYAISWVRQAPGQGLEWMGGIIPIFGTANYAQKFQGRVTITADESTSTAYMELSSLRSEDTAVYYCARGWYFDLWGRGTLVTVSS
VL: LPVLTQPPSASGTPGQRVTISCSGSSSNIGGYSVNWYQQFPGTAPKLLIYRNNQRPSGVPDRFSGSKSGASASLAISGLQSEDEADYYCAAWDDSLIGYVFGTGTQLTVL
notes: Variable regions cloned into vector pUFL and secreted as Fab by E. coli BL21(DE3); also called Fab form of B10

Biological target: T1, human BCMA on the cell membrane surface …
Assay: flow cytometry on RPMI8226 cells, scFv-Fc

In order of falling percentage of binding:
1. B2  58.2%
2. B3  57.5%
3. B5  54.9%
4. B4  42.9%
5. B1  5.54%

Biological target: T1, human BCMA on the cell membrane surface …
Assay: flow cytometry on RPMI8226 cells (as the table labels it; the text gives this value to J6)

In the case of B1, the EC50 is reported as 1.57 µg/mL.

Biological target: T1, human BCMA on the cell membrane surface …
Assay: flow cytometry on RPMI8226 cells, EC50 ratio (as the table labels it)

B1 was tested, and the “Fold increase relative to J6” value was 0.57 fold.

Biological target: T2, BCMA-Fc fusion protein (Acrobiosystems, …)
Assay: ELISA, BCMA-Fc coated at 0.25 µg/ml, Fab from E. coli, HRP anti-human Fab
Experimental: The conditions of the enzyme-linked reaction were optimized through preliminary experiments, to allow the A450 absorption value of the binding of B10 parental antibody Fab to the antigen BCMA-Fc 3 times higher than the background signal. The BCMA-Fc antigen was coated at 0.25 μg/ml on the enzyme-linked plate one day in advance, and the secreted and expressed mutant Fab was added to the wells on the following day, with HRP-conjugated anti-human Fab as the second antibody, the substrate was colored, and A450 was read, to obtain clones corresponding to the wells with signals 1.5 times higher than the maximum value of the parental wells, and these clones were called hits. All hits of the light and heavy chain variable regions were collected, inducted to express and tested by ELISA to verify their affinity higher than the parental antibody. Sequence analysis of mutant regions of the plasmid of the re-positive clone was performed, to obtain the mutation information of CDR amino acids. The process was called primary screening. All mutation information in the CDR region that was beneficial to the improvement of affinity was obtained: mutation sites that improved affinity in the heavy chain variable region CDR are shown in Table 1, and those in the light chain variable region CDR are shown in Table 2.

B6: binds.

Biological target: T1, human BCMA on the cell membrane surface …
Assay: flow cytometry on RPMI8226 cells
From the text: (§1) In order to understand the apparent affinity of these antibodies to BCMA on the cell surface, the binding of B10 parental antibody and the finally obtained 4 mutants to BCMA-expressing cell line RPMI8226 were compared with J6 by flow cytometry (see Graph B of FIG. 4, Table 4).

In order of falling EC50:
1. B4  0.0451 µg/mL
2. B2  0.0406 µg/mL
3. B3  0.0343 µg/mL
4. B5  0.0282 µg/mL

Biological target: T1, human BCMA on the cell membrane surface …
Assay: flow cytometry on RPMI8226 cells, EC50 ratio
From the text: as §1

In order of rising “Fold increase relative to J6” value:
1. B4  60.7 fold
2. B2  67.5 fold
3. B3  79.9 fold
4. B5  97.1 fold

Biological target: T1, human BCMA on the cell membrane surface …
Assay: flow cytometry on RPMI8226 cells (as the text tells it; the table gives this value to J6); flow cytometry on RPMI8226 cells; value as the text of paragraph 107 assigns it

In the case of B1, the EC50 is reported as 2.74 µg/mL.

Biological target: T1, human BCMA on the cell membrane surface …
Assay: flow cytometry on H929 cells, scFv-Fc

In order of rising percentage of binding:
1. B1  75.3%
2. B4  91.6%
3. B2  97.2%
4. B3  97.9%
5. B5  98%

Biological target: T2, BCMA-Fc fusion protein (Acrobiosystems, …)
Assay: ELISA EC50 relative to J6
Experimental: (§2) After antibodies with different concentrations were coated on enzyme-linked plates, the biotinylated BCMA antigen, streptavidin-conjugated horseradish peroxidase (HRP) and chromogenic substrate were added step by step. The obtained signal-antibody gradient curve is shown in Graph A of FIG. 4, and the relative affinity change fold is shown in Table 3.

In order of rising “Fold of J6” value:
1. B5  1.29 fold
2. B2  1.35 fold
3. B4  1.43 fold
4. B3  1.55 fold

Biological target: T2, BCMA-Fc fusion protein (Acrobiosystems, …)
Assay: affinity worked out from the ELISA EC50 fold against J6 (taken as about 0.2 nM)
Experimental: as §2

In order of falling Kd:
1. B3  310 pM
2. B4  290 pM
3. B2  270 pM
4. B5  260 pM
